Experimental findings from patent US20210140973A1 (NITTO BOSEKI, published 2021) are described below.

Holding throughout (experiment): indirect ELISA, antigen coated 1 µg/mL, antibody 1 µg/mL; no-antigen well 0.042
Test [1] addresses Myeloma human IgA2 (Abcam) (human, UniProt P01877-1 1-340). Here is the method:
(§1) Myeloma human IgA1 (Abcam), Myeloma human IgA2 (Abcam), Myeloma human IgD (Abcam), Myeloma human IgE (Abcam), Myeloma human IgM (Abcam), Myeloma human IgG1 (EMD Millipore), Myeloma human IgG2 (EMD Millipore), Myeloma human IgG3 (Sigma-Aldrich Co. LLC), and Myeloma human IgG4 (EMD Millipore) were adjusted to 1 μg/mL with PBS(−). The adjusted samples were added to a 96-well plate (Thermo Fisher Scientific) by 100 μL, respectively. The plate was shaken by a shaker under the condition of 700 rpm and 25.0° C. for 1 hour. The solutions were discarded, the plate was cleaned with 300 μL of PBST 3 times, 100 μL of a blocking buffer solution was added to each well, and then the plate was stored at 4° C. one night or more. Similarly, after cleaning with PBST, the MaI4-08 and MaI4-09-produced antibodies were adjusted to 1 μg/mL with an antibody dilute buffer solution and then added to each well by 100 μL, and the plate was shaken under the same condition as mentioned above. Similarly, after cleaning with PBST, a HRP labeled anti-mouse IgG antibody (Abcam) diluted 4000-fold with an antibody dilute buffer solution was added to each well by 100 μL, and the plate was shaken under the same condition as mentioned above. Similarly, after cleaning with PBST, 100 μL of SureBlue (KPL) was added. 5 or 3 minutes later, 100 μL of 0.5 mol/L sulfuric acid (Wako Pure Chemical Corporation) was added to each of MaI4-08 and MaI4-09. Absorbance at a wavelength of 450 nm was measured with a microplate reader (BIO-RAD Laboratories, Inc.). As a result, a strong signal was given to Myeloma human IgG4 as compared to the other samples (Tables 2 and 3, and FIGS. 2 and 3).

Test [2] has as its target Myeloma human IgD (Abcam) (human, UniProt P01880-1 1-384). The method, then: as §1
Test [3] deals with Myeloma human IgE (Abcam) (human, UniProt P01854-1 1-428). The method, then:
as §1

The target of test [4] is T1, Myeloma human IgG1 (EMD Millipore) (human).
T1 construct: Bought myeloma protein
Here is the method: as §1

Test [5] has as its target T2, Myeloma human IgG2 (EMD Millipore) (human).
T2 construct: Bought myeloma protein
Here is the method:
as §1

The target of test [6] is T3, Myeloma human IgG3 (Sigma-Aldrich Co. LLC) (human).
T3 construct: Bought myeloma protein
Here is the method:
as §1

T1 sequence (constant, as listed by the source limits assumed): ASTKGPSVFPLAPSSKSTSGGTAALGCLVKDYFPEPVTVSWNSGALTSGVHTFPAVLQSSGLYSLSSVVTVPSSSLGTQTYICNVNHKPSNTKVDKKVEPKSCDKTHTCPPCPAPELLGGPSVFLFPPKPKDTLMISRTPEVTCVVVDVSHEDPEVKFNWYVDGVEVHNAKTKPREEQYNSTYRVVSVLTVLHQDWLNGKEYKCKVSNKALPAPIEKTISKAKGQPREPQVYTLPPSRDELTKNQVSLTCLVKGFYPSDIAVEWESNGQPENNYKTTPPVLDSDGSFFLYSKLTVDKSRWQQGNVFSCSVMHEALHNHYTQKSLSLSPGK
Sequence of Myeloma human IgD (Abcam) (P01880 other isoform, or with tags, fused parts or gaps): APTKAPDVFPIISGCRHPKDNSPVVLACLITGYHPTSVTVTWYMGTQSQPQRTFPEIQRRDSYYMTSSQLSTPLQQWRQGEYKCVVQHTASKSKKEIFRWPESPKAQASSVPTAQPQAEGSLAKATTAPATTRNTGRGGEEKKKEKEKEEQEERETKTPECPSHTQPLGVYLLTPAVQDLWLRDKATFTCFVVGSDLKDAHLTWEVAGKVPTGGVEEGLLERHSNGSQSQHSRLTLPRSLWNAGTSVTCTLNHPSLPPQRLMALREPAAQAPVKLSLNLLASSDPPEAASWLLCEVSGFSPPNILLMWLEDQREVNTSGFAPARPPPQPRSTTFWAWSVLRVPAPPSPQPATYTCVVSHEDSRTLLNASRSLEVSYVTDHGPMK
Sequence of Myeloma human IgA2 (Abcam) (P01877 other isoform, or with tags, fused parts or gaps): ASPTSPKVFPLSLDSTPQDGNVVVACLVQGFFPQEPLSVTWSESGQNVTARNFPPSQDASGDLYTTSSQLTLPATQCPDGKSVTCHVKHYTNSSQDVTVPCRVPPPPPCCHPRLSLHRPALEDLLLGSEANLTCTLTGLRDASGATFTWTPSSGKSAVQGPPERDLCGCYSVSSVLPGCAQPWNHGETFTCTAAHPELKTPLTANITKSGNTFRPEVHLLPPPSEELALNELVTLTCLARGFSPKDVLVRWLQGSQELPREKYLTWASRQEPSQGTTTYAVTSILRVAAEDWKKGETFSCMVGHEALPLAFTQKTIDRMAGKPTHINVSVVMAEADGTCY
T2 sequence (constant, as listed by the source limits assumed): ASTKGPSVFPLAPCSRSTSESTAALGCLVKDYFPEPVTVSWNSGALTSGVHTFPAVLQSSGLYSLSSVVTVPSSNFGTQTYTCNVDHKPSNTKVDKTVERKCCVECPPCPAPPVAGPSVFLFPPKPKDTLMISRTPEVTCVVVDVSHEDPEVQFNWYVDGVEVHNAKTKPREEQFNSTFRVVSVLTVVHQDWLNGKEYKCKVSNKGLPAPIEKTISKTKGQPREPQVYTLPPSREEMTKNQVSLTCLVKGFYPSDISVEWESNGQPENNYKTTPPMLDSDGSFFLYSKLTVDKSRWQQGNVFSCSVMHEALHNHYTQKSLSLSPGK
T3 sequence (constant, as listed by the source limits assumed): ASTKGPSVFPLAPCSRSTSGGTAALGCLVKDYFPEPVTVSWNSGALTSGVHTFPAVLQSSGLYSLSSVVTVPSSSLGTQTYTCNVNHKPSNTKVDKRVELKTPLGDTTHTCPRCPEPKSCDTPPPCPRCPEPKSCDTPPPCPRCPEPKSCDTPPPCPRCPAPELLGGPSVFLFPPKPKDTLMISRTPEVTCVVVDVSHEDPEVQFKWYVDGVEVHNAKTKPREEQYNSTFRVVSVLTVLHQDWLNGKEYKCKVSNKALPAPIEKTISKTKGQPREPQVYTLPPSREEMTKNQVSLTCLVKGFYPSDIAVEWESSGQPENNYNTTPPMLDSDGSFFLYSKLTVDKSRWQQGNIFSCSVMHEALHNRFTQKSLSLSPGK
Sequence of Myeloma human IgE (Abcam) (P01854 other isoform, or with tags, fused parts or gaps): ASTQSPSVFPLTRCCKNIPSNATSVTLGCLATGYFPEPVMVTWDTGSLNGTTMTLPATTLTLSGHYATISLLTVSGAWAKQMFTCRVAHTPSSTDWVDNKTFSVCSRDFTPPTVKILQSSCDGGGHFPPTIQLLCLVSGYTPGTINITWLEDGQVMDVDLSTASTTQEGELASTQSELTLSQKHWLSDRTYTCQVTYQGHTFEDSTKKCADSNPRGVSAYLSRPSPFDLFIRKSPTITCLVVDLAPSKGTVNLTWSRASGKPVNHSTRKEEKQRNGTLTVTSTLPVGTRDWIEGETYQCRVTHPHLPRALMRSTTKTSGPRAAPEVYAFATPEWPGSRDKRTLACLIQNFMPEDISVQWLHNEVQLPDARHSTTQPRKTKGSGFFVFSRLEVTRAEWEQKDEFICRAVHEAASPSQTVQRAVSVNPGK

B1: MaI4-08-produced antibody (antibody, IgG1, V domains shown)
VH: EVQLQQSGPELVKPGTSVKMSCKASGYIFTSYILHWVKQKPGQGLEWIAYINPYNDGTKYKEKFKGKGTLTSDKSSSTAYMELSSLTSEDSAVYYCARSGGGYGNYAWFAYWGPGTLVTVST
VL: DIQMTQSPSSLSASLGERVSLTCRASQDIGSSLNWLQQEPDGTIKRLIYATSSLDSGVPKRFSGSRSGSDYSLTISSLESEDFVDYYCLQYASYPPTFGAGTKLELK
notes: Purified on protein G from hybridoma culture supernatant; POD-labelled for the Western blots
As for B1, the “absorbance at 450 nm” value in test [1] worked out at 0.043; in test [2], 0.042; in test [3], 0.041; in test [4] it was 0.048; in test [5], 0.047; in test [6] it was 0.044.
